According to the supplement of paper PMC7125110:
± gives the standard error. Variants at the floor of the assay were thinned out.

B1: glmS ribozyme (parent)
chain: AUAAAAGCGCCAGAACUACAGAAAUGUAGUUGACGAGGAGGAGGUUUAUCGAAUUUUCGGCGGAUGCCUCCAAA

Columns and labels:
Details in all cases: with glucosamine-6-phosphate
[1] = variants of: B1; experiment: self-cleavage kobs at 40 uM GlcN6P; higher = faster cleavage; RNA array
How it was run: (§1)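 kcat and KM were obtained from weighted Michaelis–Menten fits across concentrations of kobs values. Those came from one- or two-exponential decay fits to per-tile medians normalised to baseline and to non-cleaving reference variants. The variants were barcoded ribozymes transcribed in situ by E. coli RNA polymerase on sequenced MiSeq chips and tracked through a hybridised Cy3 probe at 37 °C, with 40 μM to 10 mM glucosamine-6-phosphate in HEPES/KCl/Mg(OAc)2 buffer flowed in.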

[2] = variants of: B1; experiment: self-cleavage kobs at 160 uM GlcN6P; higher = faster cleavage; RNA array
How it was run: as §1

[3] = variants of: B1; experiment: self-cleavage kobs at 640 uM GlcN6P; higher = faster cleavage; RNA array
How it was run: as §1

[4] = variants of: B1; experiment: self-cleavage kobs at 10000 uM GlcN6P; higher = faster cleavage; RNA array
How it was run: as §1

[5] = variants of: B1; experiment: self-cleavage kobs at 2500 uM GlcN6P; higher = faster cleavage; RNA array
How it was run: as §1

C34A G63U
self-cleavage kobs at 40 uM GlcN6P [1]: < 1e-05 s⁻¹
self-cleavage kobs at 160 uM GlcN6P [2]: < 1e-05 s⁻¹
self-cleavage kobs at 640 uM GlcN6P [3]: < 1e-05 s⁻¹
self-cleavage kobs at 10000 uM GlcN6P [4]: < 1e-05 s⁻¹

G35U C50G
self-cleavage kobs at 40 uM GlcN6P [1]: 3.53e-05 ± 1.5e-05 s⁻¹
self-cleavage kobs at 160 uM GlcN6P [2]: 9.05e-05 ± 2.7e-05 s⁻¹
self-cleavage kobs at 2500 uM GlcN6P [5]: 0.000141 ± 3.9e-05 s⁻¹

A33G A39U
self-cleavage kobs at 40 uM GlcN6P [1]: < 1e-05 s⁻¹
self-cleavage kobs at 2500 uM GlcN6P [5]: < 1e-05 s⁻¹
self-cleavage kobs at 10000 uM GlcN6P [4]: < 1e-05 s⁻¹

G35U G60C
self-cleavage kobs at 40 uM GlcN6P [1]: < 1e-05 s⁻¹
self-cleavage kobs at 160 uM GlcN6P [2]: < 1e-05 s⁻¹
self-cleavage kobs at 640 uM GlcN6P [3]: < 1e-05 s⁻¹
self-cleavage kobs at 2500 uM GlcN6P [5]: < 1e-05 s⁻¹
self-cleavage kobs at 10000 uM GlcN6P [4]: < 1e-05 s⁻¹

G35U G60U
self-cleavage kobs at 40 uM GlcN6P [1]: < 1e-05 s⁻¹
self-cleavage kobs at 160 uM GlcN6P [2]: < 1e-05 s⁻¹
self-cleavage kobs at 640 uM GlcN6P [3]: < 1e-05 s⁻¹
self-cleavage kobs at 2500 uM GlcN6P [5]: < 1e-05 s⁻¹
self-cleavage kobs at 10000 uM GlcN6P [4]: < 1e-05 s⁻¹

G35A C50G C61G
self-cleavage kobs at 40 uM GlcN6P [1]: 0.000147 ± 3e-05 s⁻¹
self-cleavage kobs at 10000 uM GlcN6P [4]: 0.000252 ± 4.7e-05 s⁻¹

C34A A39G A64C
self-cleavage kobs at 40 uM GlcN6P [1]: < 1e-05 s⁻¹
self-cleavage kobs at 640 uM GlcN6P [3]: < 1e-05 s⁻¹
self-cleavage kobs at 2500 uM GlcN6P [5]: < 1e-05 s⁻¹
self-cleavage kobs at 10000 uM GlcN6P [4]: < 1e-05 s⁻¹

A36C U49A G62C C70U
self-cleavage kobs at 40 uM GlcN6P [1]: < 1e-05 s⁻¹
self-cleavage kobs at 10000 uM GlcN6P [4]: < 1e-05 s⁻¹

G35C C61G
self-cleavage kobs at 40 uM GlcN6P [1]: < 1e-05 s⁻¹
self-cleavage kobs at 160 uM GlcN6P [2]: < 1e-05 s⁻¹
self-cleavage kobs at 640 uM GlcN6P [3]: < 1e-05 s⁻¹

G35C C71U
self-cleavage kobs at 40 uM GlcN6P [1]: < 1e-05 s⁻¹
self-cleavage kobs at 640 uM GlcN6P [3]: < 1e-05 s⁻¹
self-cleavage kobs at 2500 uM GlcN6P [5]: < 1e-05 s⁻¹
self-cleavage kobs at 10000 uM GlcN6P [4]: < 1e-05 s⁻¹

A33C G37C
self-cleavage kobs at 40 uM GlcN6P [1]: < 1e-05 s⁻¹
self-cleavage kobs at 640 uM GlcN6P [3]: < 1e-05 s⁻¹
self-cleavage kobs at 2500 uM GlcN6P [5]: < 1e-05 s⁻¹

C34U G40C G51U C61A G63U
self-cleavage kobs at 40 uM GlcN6P [1]: < 1e-05 s⁻¹

A33C G38A
self-cleavage kobs at 40 uM GlcN6P [1]: < 1e-05 s⁻¹
self-cleavage kobs at 160 uM GlcN6P [2]: < 1e-05 s⁻¹
self-cleavage kobs at 640 uM GlcN6P [3]: < 1e-05 s⁻¹
self-cleavage kobs at 2500 uM GlcN6P [5]: < 1e-05 s⁻¹
self-cleavage kobs at 10000 uM GlcN6P [4]: < 1e-05 s⁻¹

A33C G38C
self-cleavage kobs at 40 uM GlcN6P [1]: < 1e-05 s⁻¹
self-cleavage kobs at 160 uM GlcN6P [2]: < 1e-05 s⁻¹
self-cleavage kobs at 640 uM GlcN6P [3]: < 1e-05 s⁻¹
self-cleavage kobs at 2500 uM GlcN6P [5]: < 1e-05 s⁻¹

A33G G59C
self-cleavage kobs at 40 uM GlcN6P [1]: < 1e-05 s⁻¹
self-cleavage kobs at 160 uM GlcN6P [2]: < 1e-05 s⁻¹
self-cleavage kobs at 640 uM GlcN6P [3]: < 1e-05 s⁻¹
self-cleavage kobs at 2500 uM GlcN6P [5]: < 1e-05 s⁻¹
self-cleavage kobs at 10000 uM GlcN6P [4]: < 1e-05 s⁻¹

C34A A36G A39C
self-cleavage kobs at 40 uM GlcN6P [1]: < 1e-05 s⁻¹
self-cleavage kobs at 2500 uM GlcN6P [5]: < 1e-05 s⁻¹
self-cleavage kobs at 10000 uM GlcN6P [4]: < 1e-05 s⁻¹

C34A C61U C67U
self-cleavage kobs at 40 uM GlcN6P [1]: < 1e-05 s⁻¹
self-cleavage kobs at 10000 uM GlcN6P [4]: < 1e-05 s⁻¹

G35U U69C
self-cleavage kobs at 40 uM GlcN6P [1]: < 1e-05 s⁻¹
self-cleavage kobs at 160 uM GlcN6P [2]: < 1e-05 s⁻¹
self-cleavage kobs at 2500 uM GlcN6P [5]: < 1e-05 s⁻¹
self-cleavage kobs at 10000 uM GlcN6P [4]: < 1e-05 s⁻¹

A36C A64C
self-cleavage kobs at 40 uM GlcN6P [1]: < 1e-05 s⁻¹
self-cleavage kobs at 640 uM GlcN6P [3]: < 1e-05 s⁻¹
self-cleavage kobs at 2500 uM GlcN6P [5]: < 1e-05 s⁻¹
self-cleavage kobs at 10000 uM GlcN6P [4]: < 1e-05 s⁻¹

A36C G37C G41C C50A A52C C71U
self-cleavage kobs at 40 uM GlcN6P [1]: < 1e-05 s⁻¹
